Measurements: patent publication US20140161821A1, “TREATMENT WITH ANTI-PCSK9 ANTIBODIES” (PFIZER INC., priority 2011, published 2014)

Columns and labels:
[1] = Example 6 clinical study: safety and immunogenicity; format: in vivo, human; conditions: IV every 4 weeks, stable daily statin
Description: Subjects were seen periodically in the clinic for safety assessments and collection of blood for safety labs, lipid profiles, PK, PD, and immunogenicity samples. Telephone contacts were made prior to each visit to remind them of the 10-hour fasting requirements, during screening and on Day 3 to assess adverse events and document the contact in the subject's source document. […] Infusion rates were carefully controlled by an infusion device per protocol. Infusions were administered as a single infusion over approximately 60 minutes.

[2] = system: PCSK9; test: LDL-C and HDL-C in cynomolgus monkeys after IV dosing; format: in vivo
Text: One (1) mg/kg dosing reached a maximum effect of 71% reduction in LDL-C on day 5, and began to recover immediately thereafter, reaching pre-dose levels by day 14. Three (3) mg/kg dosing reached a maximum effect of 72% reduction in LDL-C by day 7, levels began to recover by day 13, and returned to baseline by day 22. Ten (10) mg/kg dosing maintained the 70% reduction in LDL-C levels until day 21 post-dosing, and animals fully recovered by day 31. […] HDL-C levels were not affected by L1L3 treatment in all dose groups.
These two additional doses again lowered LDL-C and kept LDL-C levels below 50% for 4 weeks. LDL-C levels returned to normal two weeks later.

B1: L1L3: humanized (<5% murine residues) monoclonal PCSK9 antagonist antibody that binds to secreted PCSK9; VH SEQ ID NO: 11, VL SEQ ID NO: 12 (antibody, V domains shown)
VH: QVQLVQSGAEVKKPGASVKVSCKASGYTFTSYYMHWVRQAPGQGLEWMGEISPFGGRTNYNEKFKSRVTMTRDTSTSTVYMELSSLRSEDTAVYYCARERPLYASDLWGQGTTVTVSS
VL: DIQMTQSPSSLSASVGDRVTITCRASQGISSALAWYQQKPGKAPKLLIYSASYRYTGVPSRFSGSGSGTDFTFTISSLQPEDIATYYCQQRYSLWRTFGQGTKLEIK
modifications: heavy chain variable region; light chain variable region
- Anti-drug antibodies (ADA) [1]: No subject had positive ADA
- Safety and tolerability [1]: generally safe and well-tolerated
- Changes in LFTs, CK, ECGs, and BP ([1]; in most cases considered not related to treatment): transient, mild in nature
- Day by which LDL-C recovered ([2]; single IV 0.1 mg/kg): ≤ 5 days
- LDL-C drop (transient) ([2]; single IV 0.1 mg/kg, day 2): 50%
- Day by which LDL-C reached pre-dose levels ([2]; single IV 1 mg/kg): ≤ 14 days
- LDL-C reduction, maximum effect ([2]; single IV 1 mg/kg, day 5): 71%
- Day by which LDL-C returned to baseline ([2]; single IV 3 mg/kg): ≤ 22 days
- LDL-C reduction, maximum effect ([2]; single IV 3 mg/kg, by day 7): 72%
- Day by which animals fully recovered (LDL-C) ([2]; single IV 10 mg/kg): ≤ 31 days
- LDL-C reduction ([2]; single IV 10 mg/kg, maintained until day 21 post-dosing): 70%
- HDL-C levels ([2]; single IV 0.1, 1, 3, 10 mg/kg, all dose groups): not affected
- Serum HDL-C levels ([2]; two additional IV doses of 3 mg/kg on study days 42 and 56): remained unchanged
- LDL-C levels ([2]; two additional IV doses of 3 mg/kg on study days 42 and 56, for 4 weeks): below 50%
